Results reported in PMC7793253, “CEP290 is essential for the initiation of ciliary transition zone assembly” (PLoS Biology, 2020).

T1: His-CEP290-N (aa 1–887) (Drosophila, UniProt Q9W0M1 1-887)
T1 construct: Drosophila centrosomal protein 290 (CEP290); Cloned into pET28a; also called CEP290 N-terminus; source: E. coli BL21 (DE3), purified (His resin)
T1 sequence (looked up): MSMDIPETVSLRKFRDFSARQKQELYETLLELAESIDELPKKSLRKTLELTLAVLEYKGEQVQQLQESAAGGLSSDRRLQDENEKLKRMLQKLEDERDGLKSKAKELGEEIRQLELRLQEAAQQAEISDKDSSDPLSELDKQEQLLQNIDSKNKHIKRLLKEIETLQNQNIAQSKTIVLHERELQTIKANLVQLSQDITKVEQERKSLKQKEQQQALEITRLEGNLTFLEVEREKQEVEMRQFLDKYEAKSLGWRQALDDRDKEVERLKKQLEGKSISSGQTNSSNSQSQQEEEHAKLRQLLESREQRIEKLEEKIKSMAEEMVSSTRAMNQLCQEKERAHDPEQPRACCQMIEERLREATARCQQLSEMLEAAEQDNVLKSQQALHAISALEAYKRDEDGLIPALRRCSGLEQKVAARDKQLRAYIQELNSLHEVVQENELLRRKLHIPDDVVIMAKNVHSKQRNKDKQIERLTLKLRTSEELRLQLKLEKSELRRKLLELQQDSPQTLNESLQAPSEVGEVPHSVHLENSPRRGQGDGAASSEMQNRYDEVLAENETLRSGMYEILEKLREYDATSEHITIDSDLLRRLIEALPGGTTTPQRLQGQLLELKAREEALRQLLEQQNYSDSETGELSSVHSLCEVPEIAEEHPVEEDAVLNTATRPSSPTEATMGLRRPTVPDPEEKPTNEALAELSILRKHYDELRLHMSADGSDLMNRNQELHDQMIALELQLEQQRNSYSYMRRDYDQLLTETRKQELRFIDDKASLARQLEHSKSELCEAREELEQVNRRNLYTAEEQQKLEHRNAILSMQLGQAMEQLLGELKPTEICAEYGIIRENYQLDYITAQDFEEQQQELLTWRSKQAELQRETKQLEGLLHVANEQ

B1: GST-DZIP1-N (aa 1–293) (domain or fragment, Drosophila, UniProt Q9VC70 1-293, looked up)
chain: MGFKGKYPQMVRETGFKLRQYRDGPLDWRLMGSYETERILREQNFELVDKALTHLSEAPLGTVLETHILDSGIAKYFVMSQYAIQYLMCCRTYLDECVTDLKEAHTTAQEEIATLRKSLSESNNEVVQLHKRITQIEAIREVVYPCHLCTKNFISNEALNVHIGRKHRVASPPSLTSATGKEKDRDKATDVHLINTIKMELEIKQLKERLNAAERNIKERSTGSKRVSPRQEQRHVGIQSNLAEPKEKDEDSGEARQSEASERKEQLTGLAERLSNFEEWQTQLKQSNEQFIQ
notes: Cloned into pGEX-4T-1; also called N-terminus of DZIP1; source: E. coli BL21 (DE3), purified (Glutathione Sepharose)
B2: GST-DZIP1-C (aa 294–737) (domain or fragment, Drosophila, UniProt Q9VC70 294-737, looked up)
chain: DINKRLEGLSHALEQSKQASASTPPLEDRVATPCLEDLERILTEKVAEIGKVSAHRLEEVVYHLEEGYKEKLGALERELKQLSVQKVQPEPVQTVPVASKIPKPVVRKEETNIDRIRKQVESEFLKQKHDDDTYSIEEAPRKGSEKPFPQLVTQVQVVEKEQPSAGSSDSNPTYTKSPREPAPNKQETKEATDVSDSLSQEETENEEERSLTEEEGTDVPTSGSEAAREDPTPKTIKPSGRIIKSPQKPLTRKDARKMVNRKLMSHGFDMKSKGISHNSLKRVNSELTEHRNKLKLQHPHFYATRNRIRKFVEKLCSAKFSERAEMLLKHKSPLKPMEVPGKGIPRSAISEKSEEDIASSQGEEQTDEQTDSSEQQTRSPSPQRLVSRDFKARLEEILVKPAATIRGASKSSLSSRPVPLPRKRVMFNTTEDGKSFNDSDDNLK
notes: Cloned into pGEX-4T-1; also called C-terminus of DZIP1; source: E. coli BL21 (DE3), purified (Glutathione Sepharose)

Key:
Assay in all cases: pull-down; GST pull-down: purified His-tagged proteins incubated with GST, GST-DZIP1-N or GST-DZIP1-C in 25 mM Tris-HCl pH 7.4, 150 mM NaCl, 0.5% Triton X-100, 1 mM dithiothreitol, 10% glycerol, overnight at 4°C; blot with anti-His antibodies
Settings in all cases: both partners purified
His-CEP290-N (aa 1–887) = target: T1, His-CEP290-N (aa 1–887)
GST-DZIP1-N (aa 1–293) = target: B1
GST-DZIP1-C (aa 294–737) = target: B2

Binder	binding result (His-CEP290-N (aa 1–887))	binding result (GST-DZIP1-N (aa 1–293))	binding result (GST-DZIP1-C (aa 294–737))
B1	binds	–	–
B2	binds	–	–
CEP290 N (aa 401–650) (domain or fragment, Drosophila, UniProt Q9W0M1 401-650, looked up, Drosophila centrosomal protein 290 (CEP290); This construct is not described in the methods; probably His-tagged and made in E. coli like His-CEP290-N) GLIPALRRCSGLEQKVAARDKQLRAYIQELNSLHEVVQENELLRRKLHIPDDVVIMAKNVHSKQRNKDKQIERLTLKLRTSEELRLQLKLEKSELRRKLLELQQDSPQTLNESLQAPSEVGEVPHSVHLENSPRRGQGDGAASSEMQNRYDEVLAENETLRSGMYEILEKLREYDATSEHITIDSDLLRRLIEALPGGTTTPQRLQGQLLELKAREEALRQLLEQQNYSDSETGELSSVHSLCEVPEIAE	–	binds	–
CEP290 N (aa 651–887) (domain or fragment, Drosophila, UniProt Q9W0M1 651-887, looked up, Drosophila centrosomal protein 290 (CEP290); This construct is not described in the methods; probably His-tagged and made in E. coli like His-CEP290-N) EHPVEEDAVLNTATRPSSPTEATMGLRRPTVPDPEEKPTNEALAELSILRKHYDELRLHMSADGSDLMNRNQELHDQMIALELQLEQQRNSYSYMRRDYDQLLTETRKQELRFIDDKASLARQLEHSKSELCEAREELEQVNRRNLYTAEEQQKLEHRNAILSMQLGQAMEQLLGELKPTEICAEYGIIRENYQLDYITAQDFEEQQQELLTWRSKQAELQRETKQLEGLLHVANEQ	–	binds	binds
His-Rab8 (natural protein, Drosophila, UniProt O18338 1-207, looked up, Drosophila Rab8; Cloned into pET28a; source: E. coli BL21 (DE3), purified (His resin)) MAKTYDYLFKLLLIGDSGVGKTCILFRFSEDAFNTTFISTIGIDFKIRTIELDNKKIKLQIWDTAGQERFRTITTAYYRGAMGIMLVYDITQEKSFENIKNWIRNIEENASADVEKMLLGNKCELTDKRQVSKERGEQLAIEYGIKFMETSAKASINVEEAFLTLASDIKAKTEKRMEANNPPKGGHQLKPMDSRTKDSWLSRCSLL	–	binds	–
His-Rab8^T22N (natural protein, Drosophila, UniProt O18338 1-207, looked up, Drosophila Rab8 with T22N; Cloned into pET28a; also called Rab8^GDP-mimicking mutant; source: E. coli BL21 (DE3), purified (His resin)) MAKTYDYLFKLLLIGDSGVGKNCILFRFSEDAFNTTFISTIGIDFKIRTIELDNKKIKLQIWDTAGQERFRTITTAYYRGAMGIMLVYDITQEKSFENIKNWIRNIEENASADVEKMLLGNKCELTDKRQVSKERGEQLAIEYGIKFMETSAKASINVEEAFLTLASDIKAKTEKRMEANNPPKGGHQLKPMDSRTKDSWLSRCSLL	–	binds	–
